Literature values as cited in article PMC3733499 (Thrombosis and haemostasis, 2013).

Key:
[1] = target: prothrombinase (FXa/FVa/PL) (Homo sapiens, UniProt P00742+P12259); settings: only in the presence of FVa; ref [19]; cited from earlier work
FVa = target: T1, FVa (Homo sapiens, UniProt P07225); settings: ref [19]; cited from earlier work
T1 sequence (P07225 42-676): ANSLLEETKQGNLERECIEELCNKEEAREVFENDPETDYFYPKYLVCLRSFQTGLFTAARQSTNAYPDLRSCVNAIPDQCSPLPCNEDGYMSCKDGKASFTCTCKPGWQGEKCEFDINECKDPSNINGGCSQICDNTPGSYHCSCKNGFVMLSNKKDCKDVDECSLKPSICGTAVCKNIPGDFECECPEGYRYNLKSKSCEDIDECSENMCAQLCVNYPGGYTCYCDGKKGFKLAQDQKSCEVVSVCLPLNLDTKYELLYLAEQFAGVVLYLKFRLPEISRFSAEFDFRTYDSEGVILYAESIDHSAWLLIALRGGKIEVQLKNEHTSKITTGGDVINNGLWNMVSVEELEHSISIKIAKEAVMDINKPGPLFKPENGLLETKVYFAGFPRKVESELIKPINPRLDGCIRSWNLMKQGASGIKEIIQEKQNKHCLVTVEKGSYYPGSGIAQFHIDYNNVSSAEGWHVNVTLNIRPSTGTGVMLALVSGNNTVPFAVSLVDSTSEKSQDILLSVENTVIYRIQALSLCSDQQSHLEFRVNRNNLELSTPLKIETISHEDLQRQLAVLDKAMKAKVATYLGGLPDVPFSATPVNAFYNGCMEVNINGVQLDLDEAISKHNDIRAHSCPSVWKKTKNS

FXa binding to FVa = settings: ref [19]; cited from earlier work

Chain of prothrombinase (FXa/FVa/PL) (P12259 29-737 limits assumed): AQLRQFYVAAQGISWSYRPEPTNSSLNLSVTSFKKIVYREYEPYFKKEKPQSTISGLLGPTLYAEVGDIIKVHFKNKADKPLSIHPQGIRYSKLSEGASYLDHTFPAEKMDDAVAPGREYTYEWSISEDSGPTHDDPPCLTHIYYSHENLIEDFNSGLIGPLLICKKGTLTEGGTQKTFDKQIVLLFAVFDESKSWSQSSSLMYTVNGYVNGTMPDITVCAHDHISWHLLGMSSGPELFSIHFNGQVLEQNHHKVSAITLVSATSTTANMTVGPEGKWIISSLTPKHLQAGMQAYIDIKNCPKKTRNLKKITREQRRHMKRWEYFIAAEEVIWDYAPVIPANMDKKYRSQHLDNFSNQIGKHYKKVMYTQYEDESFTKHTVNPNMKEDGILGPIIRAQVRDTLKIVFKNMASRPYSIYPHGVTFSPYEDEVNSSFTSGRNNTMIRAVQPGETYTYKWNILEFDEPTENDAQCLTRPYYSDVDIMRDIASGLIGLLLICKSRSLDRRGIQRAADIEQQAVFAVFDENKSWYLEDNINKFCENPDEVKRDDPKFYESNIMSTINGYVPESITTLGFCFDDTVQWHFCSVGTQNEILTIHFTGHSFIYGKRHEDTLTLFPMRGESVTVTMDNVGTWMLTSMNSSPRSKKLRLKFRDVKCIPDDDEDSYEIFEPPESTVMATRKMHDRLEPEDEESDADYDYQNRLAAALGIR
Chain of prothrombinase (FXa/FVa/PL) (P12259 1574-2224 limits assumed): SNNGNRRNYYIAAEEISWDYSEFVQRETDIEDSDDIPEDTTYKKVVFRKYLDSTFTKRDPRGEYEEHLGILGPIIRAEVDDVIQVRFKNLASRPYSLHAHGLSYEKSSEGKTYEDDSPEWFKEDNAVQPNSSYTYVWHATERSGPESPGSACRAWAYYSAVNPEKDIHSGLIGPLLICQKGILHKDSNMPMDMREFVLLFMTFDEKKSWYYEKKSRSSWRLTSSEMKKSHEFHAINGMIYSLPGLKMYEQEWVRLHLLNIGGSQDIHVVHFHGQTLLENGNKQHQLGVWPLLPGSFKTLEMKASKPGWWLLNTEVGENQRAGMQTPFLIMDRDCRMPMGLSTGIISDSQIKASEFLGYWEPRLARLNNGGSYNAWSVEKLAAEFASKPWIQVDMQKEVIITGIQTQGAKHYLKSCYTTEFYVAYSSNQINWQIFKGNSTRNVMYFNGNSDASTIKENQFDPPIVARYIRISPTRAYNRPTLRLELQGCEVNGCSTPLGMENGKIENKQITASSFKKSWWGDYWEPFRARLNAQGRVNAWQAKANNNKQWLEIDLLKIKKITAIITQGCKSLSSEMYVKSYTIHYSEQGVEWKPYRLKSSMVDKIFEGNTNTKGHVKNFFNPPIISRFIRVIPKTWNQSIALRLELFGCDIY
Chain of prothrombinase (FXa/FVa/PL) (P00742 41-179 partner limits assumed): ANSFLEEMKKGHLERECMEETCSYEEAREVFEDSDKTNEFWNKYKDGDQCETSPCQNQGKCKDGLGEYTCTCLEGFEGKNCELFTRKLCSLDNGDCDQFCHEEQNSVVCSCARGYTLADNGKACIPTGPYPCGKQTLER
Chain of prothrombinase (FXa/FVa/PL) (P00742 235-488 partner limits assumed): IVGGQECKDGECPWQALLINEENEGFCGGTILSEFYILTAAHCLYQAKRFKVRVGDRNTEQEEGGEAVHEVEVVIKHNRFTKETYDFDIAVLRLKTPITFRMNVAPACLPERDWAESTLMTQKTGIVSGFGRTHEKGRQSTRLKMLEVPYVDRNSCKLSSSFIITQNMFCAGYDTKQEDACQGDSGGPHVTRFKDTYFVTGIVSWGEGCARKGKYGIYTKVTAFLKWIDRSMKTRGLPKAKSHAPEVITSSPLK

Substance: 621–635 peptide: peptide representing PS residues 621–635 near the C-terminus (RAHSCPSVWKKTKNS; UniProt P07225 662-676, looked up, fragment)
- Inhibition of prothrombinase activity [1]: inhibited prothrombinase activity only in the presence of FVa
- Inhibition of PS binding to FVa (FVa): inhibited PS binding to FVa
- Competition with FXa for a binding site on FVa (FXa binding to FVa): appeared to compete with FXa for a binding site on FVa
